# Experimental data reported in patent publication US20100330649A1.
# Columns and labels:
# [1] = molecular target: His8-cytb5-sd (human cytochrome b5 soluble domain with N-terminal His8 tag) (UniProt P00167)
# [2] = molecular target: His8-cytb5R (soluble form of human cytochrome b5 reductase with N-terminal His8 tag) (human) (UniProt P00387); test: cell-based or functional assay
# [3] = molecular target: His8-MBP-fl-cytb5 fusion protein
# Sequence of UniProt P00167 (P00167 1-97): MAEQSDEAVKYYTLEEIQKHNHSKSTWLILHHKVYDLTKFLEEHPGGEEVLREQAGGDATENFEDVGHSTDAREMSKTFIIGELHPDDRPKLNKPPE
# Sequence of UniProt P00387 (P00387 24-301): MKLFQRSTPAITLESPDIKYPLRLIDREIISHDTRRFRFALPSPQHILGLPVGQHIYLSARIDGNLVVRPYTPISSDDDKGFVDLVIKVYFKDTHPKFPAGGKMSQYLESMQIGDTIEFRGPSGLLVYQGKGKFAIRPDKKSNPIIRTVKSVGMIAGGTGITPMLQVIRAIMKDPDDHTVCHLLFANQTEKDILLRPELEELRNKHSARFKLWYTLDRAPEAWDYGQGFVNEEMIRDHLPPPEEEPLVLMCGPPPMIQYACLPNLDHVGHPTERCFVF
molecule,measurement,setting,value
His8-cytb5R (soluble form of human cytochrome b5 reductase with N-terminal His8 tag),"Km, µM (steady-state reduction of cytb5 by His8-cytb5R with NADH)",[1],5 µM
same,"Vmax, s^-1 (steady-state reduction of cytb5 by His8-cytb5R with NADH, absorbance at 413 nm)",[1],25 s⁻¹
His8-cytb5-sd (human cytochrome b5 soluble domain with N-terminal His8 tag) (from UniProt P00167 1-97),"V/K, µM^-1 s^-1 (steady-state reduction of cytb5 by His8-cytb5R with NADH)",[2],5e+06 M⁻¹ s⁻¹
tobacco etch virus (TEV) protease (protein) GESLFKGPRDYNPISSTICHLTNESDGHTTSLYGIGFGPFIITNKHLFRRNNGTLLVQSLHGVFKVKNTTTLQQHLIDGRDMIIIRMPKDFPPFPQKLKFREPQREERICLVTTNFQTKSMSSMVSDTSCTFPSSDGIFWKHWIQTKDGQCGSPLVSTRDGFIVGIHSASNFTNTNNYFTSVPKNFMELLTNQEAQQWVSGWRLNADSVLWGGHKVFMSKPEEPFQPVKEATQLMNE,site-specific proteolysis of the linker (SDS-PAGE),[3],a satisfactory reaction was obtained at a ratio of His8-MBP-fl-cytb5 to TEV protease of 10:1 (reaction completed in 30 min)
